How the values were obtained:
Format in all cases: cell-based, human
[1] = system: CML CD34+ cells expressing BCR-ABL1T315I; test: Colony forming assay of primary CML CD34+ cells expressing BCR-ABL1T315I (samples R1, R2)
Procedure: Mononuclear cells (MNCs) were separated from the peripheral blood of patients with newly diagnosed or therapy-resistant CML with a documented T315I mutation, using Ficoll (Nycomed, Oslo, Norway). Isolation of the CD34^+ fraction was done on an autoMACS Pro (Miltenyi Biotech). […] Cells were infected with lentivirus at a multiplicity of infection (MOI) of 5 for each construct at 24 and 48 hours following harvest (fresh cells) or thaw (frozen cells). Cells were sorted on a BD FACSAria cytometer after 72 h, and GFP-positive cells were returned to culture medium for future experiments. All patients gave their informed consent in accordance with the Declaration of Helsinki, and all studies with human specimens were approved by The University of Utah Institutional Review Board (IRB).
Briefly, lentivirus-infected (GFP^+) cells were isolated by FACS and resuspended in RPMI1640. […] Plates were incubated at 37° C. in a 5% CO2 humidified incubator for 14 days. Colony forming units of granulocyte-macrophage (CFU-GM) were counted on day 14 using an inverted microscope.
All cells were plated with or without the indicated TKI in three or more independent experiments. Plates were incubated at 37° C. in a 5% CO2 humidified incubator. Colonies were counted 7-14 days later in an area of 50 μm2 per dish using an inverted microscope.

K562 cells = test: 7-AAD and Annexin V staining of protein-treated K562 cells; details: proteins 30 μM, imatinib 2.5 μM; 48 and 72 hours after treatment
Procedure: 0.5 μL of 1 mM 7-AAD (Invitrogen) was added to each sample, followed by a 45 minute incubation on ice. […] Analysis was performed using the FACS Canto-II (BD BioSciences, University of Utah Core Facility) with FACS Diva software. 7-AAD and APC were excited at 488 and 635 nm wavelengths, and emissions were detected at 660 nm. Percentage of apoptosis/necrosis was calculated by the percentage of cells that stained positive for 7-AAD and/or APC. Independent treatments were tested three times (n=3).

[2] = system: CML CD34+ cells expressing BCR-ABL1T315I; test: Liquid culture of primary T315I CML cells; details: CC^mut3 or increasing concentrations of ponatinib (FIG. 28C)
Procedure: Cell proliferation was assessed using the CellTiter 96® AQueous One Solution Cell Proliferation Assay (MTS assay, Promega) according to manufacturer instructions. Briefly, 5,000 viable cells were added to a single well in 96-well plate in 100 μL RPMI1640. Three independent samples were seeded in duplicate for each time point. […] In some experiments, cell proliferation was assessed using a Neubauer chamber and trypan blue dye exclusion.

[3] = system: CD34+ cells from newly diagnosed CML patients; test: Proliferation of lentivirus-infected CD34+ cells from newly diagnosed CML patients; details: for cell growth, in words: lentiviral CCmut3 compared with EV cells treated with 2.5 μM imatinib
Procedure: Mononuclear cells (MNCs) were separated from the peripheral blood of patients with newly diagnosed or therapy-resistant CML with a documented T315I mutation, using Ficoll (Nycomed, Oslo, Norway). Isolation of the CD34^+ fraction was done on an autoMACS Pro (Miltenyi Biotech). CD34^+ progenitors were maintained at 1×10^6 cells/mL in RPMI1640 containing 20% FBS and 5 μL/mL StemSpan CC100 (Stem Cell Technologies, Vancouver, BC, Canada). Cells were infected with lentivirus at a multiplicity of infection (MOI) of 5 for each construct at 24 and 48 hours following harvest (fresh cells) or thaw (frozen cells). Cells were sorted on a BD FACSAria cytometer after 72 h, and GFP-positive cells were returned to culture medium for future experiments. All patients gave their informed consent in accordance with the Declaration of Helsinki, and all studies with human specimens were approved by The University of Utah Institutional Review Board (IRB).
Cell proliferation was assessed using the CellTiter 96® AQueous One Solution Cell Proliferation Assay (MTS assay, Promega) according to manufacturer instructions. […] In some experiments, cell proliferation was assessed using a Neubauer chamber and trypan blue dye exclusion.
Mononuclear cells (MNCs) from peripheral blood of patients with newly diagnosed or TKI-resistant CML were separated by Ficoll (Nycomed, Oslo, Norway), and the CD34+ fraction was isolated using an autoMACS Pro Separator (Miltenyi Biotech, San Diego, Calif., USA). Purity was determined to be >90% by flow cytometric analysis using a Guava 6HT flow cytometer (Millipore, Billerica, Mass., USA). […]
293FT cells (Life Technologies, Grand Island, N.Y., USA) were grown in DMEM with 10% FBS, 100 U/ml penicillin-streptomycin, 2 mM L-glutamine, 0.1 mM MEM-non-essential amino acids, and 1 mM sodium pyruvate (Life Technologies, Grand Island, N.Y., USA). […] Lentiviral titers were determined. […]
Cell proliferation was assessed using a […] viability assay (MTS assay) utilizing CellTiter 96® AQueous One Solution Cell Proliferation Assay (Promega) according to manufacturer instructions. […]

[4] = sample R1 (accelerated phase), lentiviral CCmut3 or 10 nM ponatinib vs EV

B1: CCmut3: modified Bcr-Abl coiled-coil domain (residues 1-72) with mutations C38A, K39E, S41R, L45D, E48R, Q60E (protein)
chain: MVDPVGFAEAWKAQFPDSEPPRMELRSVGDIEQELERAEARIRRDEQRVNQERFRMIYLETLLAKEKKSYDR
colony formation, in words [1, 4]: even greater sensitivity to transduction with CCmut3 | reduction of colony formation [1, 4]: 76% | colony formation, in words ([1]; sample R1 (accelerated phase), lentiviral CCmut3 or 10 nM ponatinib vs EV, listed as CC^mut3): reduced colony formation to a similar degree | colony formation, in words ([1]; sample R2 (blast crisis, after ponatinib failure), lentiviral CCmut3 or ponatinib vs EV): only minimal activity | colony formation, in words ([1]; sample R2 (blast crisis, after ponatinib failure), lentiviral CCmut3 or ponatinib vs EV, listed as CC^mut3): insensitive | reduction of colony formation ([1]; sample R2 (blast crisis, after ponatinib failure), lentiviral CCmut3 vs EV): ~25% | induction of apoptosis/necrosis (7-AAD and/or Annexin V positive cells) (K562 cells): did not induce apoptosis | effect in liquid culture [2]: no effect | cell growth, in words [3]: significant reduction compared to inhibition by imatinib | cell growth, in words ([3]; listed as CC^mut3): considerably more pronounced reduction of growth than observed with IM | reduction of cell proliferation/growth ([3]; lentiviral CCmut3 vs EV, trypan blue exclusion): more than 2 fold
